The chains are these.
B1: Fab B3B12: anti-BACE-1 antibody clone; VL SEQ ID NO:25, VH SEQ ID NO:29, CDR-H3 SEQ ID NO:32 (antibody, V domains shown)
VH: EVQLVESGGGLVQPGGSLRLSCAASGFNIPYSSMHWVRQAPGKGLEWVASISSYSSSTSYADSVKGRFTISADTSKNTAYLQMNSLRAEDTAVYYCARYICGHRWRDFDMWRARTGVNYAMDYWGQGTLVTVSSAS
VL: DIQMTQSPSSLSASVGDRVTITCRASQSVGTYLNWYQQKPGKAPKLLIYATSNLRSGVPSRFSGSGSGTDFTLTISSLQPEDFATYYCQQSYSIPRFTFGPGTKLEIKR
B2: Fab B2B5: anti-BACE-1 antibody clone; VL SEQ ID NO:100, VH SEQ ID NO:41, CDR-H3 SEQ ID NO:43 (antibody, V domains shown)
VH: EVQLVESGGGLVQPGGSLRLSCAASGFNIYYSYMHWVRQAPGKGLEWVASIYPYYGSTYYADSVKGRFTISADTSKNTAYLQMNSLRAEDTAVYYCARWHGYPPGYSYYSSFSSSGFDYWGQGTLVTVSSAS
VL: DIQMTQSPSSLSASVGDRVTITCRASQSVSSAVAWYQQKPGKAPKLLIYSASSLYSGVPSRFSGSRSGTDFTPTISSLQPEDFATYYCQQSYFSYPITFGQGTKVEIKR
B3: Fab B1B3: anti-BACE-1 antibody clone; VL SEQ ID NO:104, VH SEQ ID NO:61, CDR-H3 SEQ ID NO:64 (antibody, V domains shown)
VH: EVQLVESGGGLVQPGGSLRLSCAASGFNISYYSMHWVRQAPGKGLEWVASISPYYGSTYYADSVKGRFTISADTSKNTAYLQMNSLRAEDTAVYYCARERSSCPVGWRDSRFGADGYGLEYWGQGTLVTVSSAS
VL: DIQMTQSPSSLSASVGDRVTITCRASQSVSSAVAWYQQKPGKAPKLLIYSASSLYSGVPSRFSGSRSGTDFTLTISSLQPEDFATYYCQQSGHYHSLITFGQGTKVEIKR
B4: Fab B2B2: anti-BACE-1 antibody clone; VL SEQ ID NO:44, VH SEQ ID NO:46, CDR-H3 SEQ ID NO:49 (antibody, V domains shown)
VH: EVQLVESGGGLVQPGGSLRLSCAASGFNISSYYMHWVRQAPGKGLEWVASIYSSYGYTYYADSVKGRFTISADTSKNTAYLQMNSLRAEDTAVYYCARYWGYYAWFGSHPWAYGAFDYWGQGTLVTVSSAS
VL: DIQMTQSPSSLSASVGDRVTITCRASQSVSSAVAWYQQKPGKAPKLLIYSASSLYSGVPSRFSGSRSGTDFTLTISSLQPEDFATYYCQQYGYYLITFGQGTKVEIKR
B5: Fab B2B9: anti-BACE-1 antibody clone; VL SEQ ID NO:96, VH SEQ ID NO:53, CDR-H3 SEQ ID NO:56 (antibody, V domains shown)
VH: EVQLVESGGGLVQPGGSLRLSCAASGFNISYSSMHWVRQAPGKGLEWVASIYPSYSYTSYADSVKGRFTISADTSKNTAYLQMNSLRAEDTAVYYCARSSSSYYYGMDYWGQGTLVTVSSAS
VL: B4 VL with Y91S, G92S, Y94S
B6: Fab B2B3: anti-BACE-1 antibody clone; VL SEQ ID NO:102, VH SEQ ID NO:50, CDR-H3 SEQ ID NO:52 (antibody, V domains shown)
VH: EVQLVESGGGLVQPGGSLRLSCAASGFNISYSSIHWVRQAPGKGLEWVAYISSYSSSTYYADSVKGRFTISADTSKNTAYLQMNSLRAEDTAVYYCARSASGIDYWGQGTLVTVSSAS
VL: B4 VL with Y91S, Y94A, L95P, I96F
B7: Fab B1A4: anti-BACE-1 antibody clone; VL SEQ ID NO:33, VH SEQ ID NO:37, CDR-H3 SEQ ID NO:40 (antibody, V domains shown)
VH: EVQLVESGGGLVQPGGSLRLSCAASGFNISYSSIHWVRQAPGKGLEWVAYISPSSSYTSYADSVKGRFTISADTSKNTAYLQMNSLRAEDTAVYYCARHYYVSVGSGIDYWGQGTLVTVSSAS
VL: DIQMTQSPSSLSASVGDRVTITCRASQSVSSAVAWYQQKPGKAPKLLIYSASSLYSGVPSRFSGSRSGTDFTPTISSLQPEDFATYYCQQASASPYALITFGQGTKVEIKR
B8: Fab 1A5: anti-MMP-14 antibody clone; VL SEQ ID NO:92, VH SEQ ID NO:9, CDR-H3 SEQ ID NO:12 (antibody, V domains shown)
VH: EVQLVESGGGLVQPGGSLRLSCAASGFNLYYYYMHWVRQAPGKGLEWVAYIYPYSGSTYYADSVKGRFTISADTSKNTAYLQMNSLRAEDTAVYYCARLDFLMRDIYYDLGGGALGWLIKYAMDYWGQGTLVTVSSAS
VL: B2 VL with P73L, S91Y, Y92S, F93G, S94P
B9: Fab 2B12: anti-MMP-14 antibody clone; VL SEQ ID NO:90, VH SEQ ID NO:5, CDR-H3 SEQ ID NO:8 (antibody, V domains shown)
VH: EVQLVESGGGLVQPGGSLRLSCAASGFNIYYSSMHWVRQAPGKGLEWVAYIYSSSSYTYYADSVKGRFTISADTSKNTAYLQMNSLRAEDTAVYYCARDCCSCVFSQSAGITLACVYVMDYWGQGTLVTVSSAS
VL: B3 VL with S91W, H93P, Y94H, H95Y, S96A, L97P

Changes are numbered by the printed parent chain.

Here are results for ten molecules from patent US11332546B2, “Protease inhibitory antibodies and methods of use thereof” (The Regents of The University of California, priority 2019, dated 2022).

T1 sequence (P56817 46-457): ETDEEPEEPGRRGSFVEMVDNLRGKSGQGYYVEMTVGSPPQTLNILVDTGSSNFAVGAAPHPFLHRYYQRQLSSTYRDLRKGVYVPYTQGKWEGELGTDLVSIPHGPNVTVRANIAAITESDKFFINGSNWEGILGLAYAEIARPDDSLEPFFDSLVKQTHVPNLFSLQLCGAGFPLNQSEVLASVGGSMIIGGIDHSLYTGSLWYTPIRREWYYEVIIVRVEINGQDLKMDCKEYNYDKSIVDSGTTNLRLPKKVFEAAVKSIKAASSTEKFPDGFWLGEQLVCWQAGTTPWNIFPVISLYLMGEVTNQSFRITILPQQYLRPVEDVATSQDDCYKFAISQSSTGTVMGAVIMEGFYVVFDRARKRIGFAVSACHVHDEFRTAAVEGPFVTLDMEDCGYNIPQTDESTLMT

One test addresses T1, BACE1 (Homo sapiens, UniProt P56817).
T1 construct: human β-secretase 1 (BACE1, residue 46-457); made in house; host or cells: HEK293F (secreted, protein A purified)
Description: FRET peptide inhibition assay, BACE1 (M-2420). The format is biochemical. The settings on record: Fab; BACE-1, FRET peptide; read-out: Inhibition Potency KI.
Description: (§1) For inhibition tests, 1 μM Fabs were 2-fold serially diluted into protease specific assay buffer and incubated with 1-10 nM proteases for 30 min at room temperature. […] Inhibition percentages at given concentrations were calculated by comparing the initial reaction rates in the presence or absence of inhibitor. IC50 was determined as the concentration that achieved 50% inhibition, and KI values were calculated using KI=IC50/(S/Km+1). Vmax and Km at various Fab concentrations were measured to determine the inhibition type. FRET inhibition assays were also used for selectivity tests of isolated Fabs with the relevant proteases.
With B1, the inhibition constant (Ki) (usually the dissociation constant of the complex between target and ligand, obtained from inhibition or displacement) came to 23 nM.
As for B2, the Ki amounted to 77 nM.
The same measure, in the same setting: with B3 the figure was 210 nM; with B4, 87 nM.
Same read-out and setting: for B5 the value was 120 nM; for B6, 100 nM.
Still for that read-out and setting: with B7 the figure was 41 nM.

Still in this test, the particulars now being: IgG format; BACE-1, FRET peptide.
As for B1, the “Inhibition Potency KI (associated IgG, in parentheses)” value is 13 nM.
Take B7: the “Inhibition Potency KI (associated IgG, in parentheses)” value is 35 nM.

In the next test the target is T2, cdMMP-12 wt (Homo sapiens, UniProt P39900).
T2 construct: hexahistidine (C); made in house; host or cells: E. coli BL21 (pET32b, cytoplasmic)
T2 sequence (P39900 106-263): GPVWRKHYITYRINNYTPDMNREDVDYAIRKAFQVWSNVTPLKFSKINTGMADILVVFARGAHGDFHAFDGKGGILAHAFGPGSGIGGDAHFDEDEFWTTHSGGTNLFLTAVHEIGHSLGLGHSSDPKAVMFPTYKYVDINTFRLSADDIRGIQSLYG
Briefly: Fibronectin proteolysis inhibition, cdMMP-12 wt (western blot). The format is biochemical. The settings on record: 2 μM GM6001; 350 nM wt cdMMP-12, 200 nM fibronectin, 37° C. As for the experimental part: Inhibition tests with macromolecular substrates 10 μg/mL FITC-conjugated elastin (AnaSpec) was incubated with 7 nM cdMMP-12 D4/wt and 2-2000 nM purified Fab in 50 mM Tris-HCl, 150 mM NaCl, 5 mM CaCl2), 100 μM ZnCl2 pH 7.5. Generated fluorescent signals were measured at 12 h with λEx of 490 nm and λEm of 520 nm. […] The samples were separated on 5% non-reducing SDS-PAGE and analyzed by western blotting with anti-Fibronectin antibody (Abcam) and chemiluminescent substrate (Thermo Scientific). […] Assays without cdMMP-12s or Fabs were performed as controls.
Turning to `CNC(=O)[C@H](Cc1c[nH]c2ccccc12)NC(=O)[C@@H](CC(=O)NO)CC(C)C` [GM6001, reference compound], the “Fibronectin remaining after cdMMP-12 wt hydrolysis” value is “significant amounts of fibronectin remained”.

The test system of a further test is cdMMP-9. Description: FRET inhibition selectivity test, cdMMP-9 (Example 1). The class given is biochemical. The settings on record: Fab at 500 nM.
Description: as §1
With B8, the “Inhibition of cdMMP-9 (selectivity)” value is given as “did not inhibit”.
On the same count and under the same terms, with B9 the entry was “did not inhibit”.

Another test addresses T1, BACE1. Description: Binding kinetics by biolayer interferometry, Fabs/IgGs on BACE1. Particulars: Fab, read-out: Binding Affinity KD. On the technique in general: BLI is a label-free optical method that tracks binding on a fibre tip over time.
Description: Binding kinetics of produced antibodies towards associated protease targets were analyzed by using biolayer interferometry (ForteBio). For Fabs, biotinylated proteases were immobilized on streptavidin biosensors, and Fab binding to the sensors in absence of protease was monitored as backgrounds. For IgGs, protein A sensors were used and protease bindings without IgG were checked as backgrounds. kon and koff were determined for KD calculations. […] Fab in vitro stability was tested by incubating 1 μM Fab with 1 μM of the respective protease in the assay buffer for 12 hours and the samples were analyzed by SDS-PAGE.
For the molecule B1, the Kd – broadly, the constant that tells how readily two partners part at equilibrium – stood at 10 nM.
On the same count and under the same terms, with B2 the figure was 130 nM; with B3, 31 nM; with B4, 52 nM.
Regarding B5, the Kd was determined as 110 nM.
Same read-out and setting: for B6 the value was 100 nM.
Take B7: the equilibrium dissociation constant (Kd) turned out to be 21 nM.

Still in this test, the particulars now being: IgG format.
Turning to B1, the “Binding Affinity KD (associated IgG, in parentheses)” value is reported as 7 nM.
Regarding B7, the “Binding Affinity KD (associated IgG, in parentheses)” value turned out to be 16 nM.
